± gives the standard deviation of the averaged measurements.
B1: library; a variant is named by its letters at N, in order (parent)
chain: ACATTTGTTGATACAACCATAAAATGATAATTACACCCATAAATTGATAATTATCACACCCANNNNNNNNNNNNNNCTCTGATCATAGTCAGACCAACATTGCTACGACCCGTATTCGCACCGACAC

Experiments:
[1] = variants of: B1; assay: relative integration efficiency (T-RL orientation) vs wild-type transposon end (log2 (normalized fold change)); transposon end mutated: right end (5 bp flank + 75 bp right end); higher = more efficient transposition; details: with VchCAST RNA-guided transposition machinery (E. coli BL21(DE3) host, lacZ target)
Procedure: (§1)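 Pooled, barcoded VchCAST (Tn6677) mini-transposon donor libraries; each variable transposon-end sequence sits in a fixed pDonor mini-transposon context (10-bp barcode and cargo not included). Left- or right-end libraries were co-transformed with pEffector (TniQ-Cascade, TnsABC, lacZ crRNA, T7, 0.1 mM IPTG) into E. coli BL21(DE3) and grown 18 h at 37 C. T-LR and T-RL junction amplicons were sequenced; output/input barcode fold change was normalised to the mean of four wild-type barcodes and log2-transformed. Two biological replicates; zero-count/undetected variants carry floor values (-10 / -15), censored here. Barcode uncoupling by PCR recombination adds noise.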

[2] = variants of: B1; assay: relative integration efficiency (T-LR orientation) vs wild-type transposon end (log2 (normalized fold change)); transposon end mutated: right end (5 bp flank + 75 bp right end); higher = more efficient transposition; details: with VchCAST RNA-guided transposition machinery (E. coli BL21(DE3) host, lacZ target)
Procedure: as §1

## TAAATTGATATTGC T12A
[1]
  relative integration efficiency (log2): -0.107 ± 0.031
[2]
  relative integration efficiency (log2): -0.916 ± 0.17

## TAAATTGATATTGC T12G
[1]
  relative integration efficiency (log2): -0.147 ± 0.043
[2]
  relative integration efficiency (log2): -1.06 ± 0.57

## GCCCTTGATATTGC
[1]
  relative integration efficiency (log2): -0.468 ± 0.1
[2]
  relative integration efficiency (log2): 2.5 ± 0.11

## TATATTGATATCTC C59A
[1]
  relative integration efficiency (log2): -0.231 ± 0.072
[2]
  relative integration efficiency (log2): -0.123 ± 0.17

## TAAATTGATATTGC T31C
[1]
  relative integration efficiency (log2): -0.0667 ± 0.0077
[2]
  relative integration efficiency (log2): 0.344 ± 0.35

## TAAATTGATATTGC T31G
[1]
  relative integration efficiency (log2): -0.564 ± 0.13
[2]
  relative integration efficiency (log2): 0.2 ± 0.23

## TAAATTGATATTGC T31A
[1]
  relative integration efficiency (log2): -0.436 ± 0.1
[2]
  relative integration efficiency (log2): 0.0674 ± 0.1

## TAAATTGATATTGG
[1]
  relative integration efficiency (log2): 0.00187 ± 0.0011
[2]
  relative integration efficiency (log2): -0.155 ± 0.042

## TAAATTGATATTGT
[1]
  relative integration efficiency (log2): 0.127 ± 0.093
[2]
  relative integration efficiency (log2): 0.155 ± 0.13

## TAATATGATATTGC
[1]
  relative integration efficiency (log2): -0.0671 ± 0.049
[2]
  relative integration efficiency (log2): 0.438 ± 0.31

## TAAATTGATATTGC T52A
[1]
  relative integration efficiency (log2): -0.149 ± 0.095
[2]
  relative integration efficiency (log2): 0.276 ± 0.4

## TAAATTGATATTGC T52C
[1]
  relative integration efficiency (log2): -0.34 ± 0.15
[2]
  relative integration efficiency (log2): -0.286 ± 0.39

## TAAATTGATATTGC T52G
[1]
  relative integration efficiency (log2): -0.506 ± 0.15
[2]
  relative integration efficiency (log2): -0.16 ± 0.37

## ATTTAACTATAACG C61A
[1]
  relative integration efficiency (log2): -0.657 ± 0.15
[2]
  relative integration efficiency (log2): 2.0647 ± 0.00092

## ATTTAACTATAACG C61G
[1]
  relative integration efficiency (log2): -0.633 ± 0.14
[2]
  relative integration efficiency (log2): 2.57 ± 0.16

## ATTTAACTATAACG C55T
[1]
  relative integration efficiency (log2): -1.15 ± 0.35
[2]
  relative integration efficiency (log2): 2.56 ± 0.14

## ATTTAACTATAACG C55A
[1]
  relative integration efficiency (log2): -1.63 ± 0.35
[2]
  relative integration efficiency (log2): 2.34 ± 0.071

## ATTTAACTATAACG C55G
[1]
  relative integration efficiency (log2): -1.37 ± 0.28
[2]
  relative integration efficiency (log2): 2.381 ± 0.011

## TAAGTTGATATTTT C59A
[1]
  relative integration efficiency (log2): 0.0617 ± 0.048
[2]
  relative integration efficiency (log2): -0.156 ± 0.28

## ATTTAACTATAACG A23T
[1]
  relative integration efficiency (log2): -0.809 ± 0.12
[2]
  relative integration efficiency (log2): 1.952 ± 0.015

## ATTTAACTATAACG A23G
[1]
  relative integration efficiency (log2): -0.928 ± 0.18
[2]
  relative integration efficiency (log2): 2.07 ± 0.26

## ATTTAACTATAACG A23C
[1]
  relative integration efficiency (log2): -1.16 ± 0.088
[2]
  relative integration efficiency (log2): 1.98 ± 0.17

## ATTTAACTATAACG A11C
[1]
  relative integration efficiency (log2): -0.753 ± 0.07
[2]
  relative integration efficiency (log2): 1.51 ± 0.15

## ATTTAACTATAACG A11T
[1]
  relative integration efficiency (log2): -0.284 ± 0.19
[2]
  relative integration efficiency (log2): 2.19 ± 0.049

## ATTTAACTATAACG A11G
[1]
  relative integration efficiency (log2): -0.569 ± 0.088
[2]
  relative integration efficiency (log2): 1.83 ± 0.095

## ATTTAACTATAACG A62C
[1]
  relative integration efficiency (log2): -1.03 ± 0.27
[2]
  relative integration efficiency (log2): 2.22 ± 0.21

## TAAATTGATATTGC T8A
[1]
  relative integration efficiency (log2): -0.814 ± 0.13
[2]
  relative integration efficiency (log2): -1.99 ± 0.69

## TAAATTGATATTGC T8C
[1]
  relative integration efficiency (log2): -0.808 ± 0.29
[2]
  relative integration efficiency (log2): -2.19 ± 0.042

## TAAATTGATATTGC T8G
[1]
  relative integration efficiency (log2): -5.89 ± 0.83
[2]
  relative integration efficiency (log2): -3.6 ± 0.47

## TAATAACATATTGC
[1]
  relative integration efficiency (log2): -0.969 ± 0.16
[2]
  relative integration efficiency (log2): 2.203 ± 0.0027

## TCCCGTGATATTGC
[1]
  relative integration efficiency (log2): -0.648 ± 0.091
[2]
  relative integration efficiency (log2): 2.35 ± 0.13

## TAAATTGCGCGTGC
[1]
  relative integration efficiency (log2): -0.618 ± 0.12
[2]
  relative integration efficiency (log2): 1.7 ± 0.1

## ATTTAACTATAACG A15T
[1]
  relative integration efficiency (log2): -1.1 ± 0.15
[2]
  relative integration efficiency (log2): 1.8 ± 0.077

## ATTTAACTATAACG A15C
[1]
  relative integration efficiency (log2): -0.749 ± 0.29
[2]
  relative integration efficiency (log2): 2.73 ± 0.074

## TGAATTGATATTGC
[1]
  relative integration efficiency (log2): -0.596 ± 0.095
[2]
  relative integration efficiency (log2): 1.91 ± 0.29

## TAAATTGATATTGC T78A
[1]
  relative integration efficiency (log2): -0.396 ± 0.15
[2]
  relative integration efficiency (log2): -0.018 ± 0.18

## TAAATTGATATTGC T78G
[1]
  relative integration efficiency (log2): 0.0385 ± 0.031
[2]
  relative integration efficiency (log2): 0.078 ± 0.44

## TAAATTGATATTGC T78C
[1]
  relative integration efficiency (log2): -0.00404 ± 0.024
[2]
  relative integration efficiency (log2): -0.0349 ± 0.43

## ATTTAACTATAACG T8G
[1]
  relative integration efficiency (log2): -6.07 ± 0.37
[2]
  relative integration efficiency (log2): -5.36 ± 1.4

## ATTTAACTATAACG T8C
[1]
  relative integration efficiency (log2): -1.8 ± 0.42
[2]
  relative integration efficiency (log2): -0.0325 ± 0.43

## ATTTAACTATAACG T8A
[1]
  relative integration efficiency (log2): -1.56 ± 0.29
[2]
  relative integration efficiency (log2): 0.918 ± 0.079

## ATTTAACTATAACG A39G
[1]
  relative integration efficiency (log2): -0.496 ± 0.057
[2]
  relative integration efficiency (log2): 2.47 ± 0.042

## ATTTAACTATAACG A39T
[1]
  relative integration efficiency (log2): -1.34 ± 0.21
[2]
  relative integration efficiency (log2): 1.59 ± 0.1

## ATTTAACTATAACG A39C
[1]
  relative integration efficiency (log2): -2.44 ± 0.36
[2]
  relative integration efficiency (log2): 0.461 ± 0.1

## ATTTAACTATAACG A58T
[1]
  relative integration efficiency (log2): -0.708 ± 0.029
[2]
  relative integration efficiency (log2): 2.39 ± 0.19

## ATTTAACTATAACG A58C
[1]
  relative integration efficiency (log2): -0.52 ± 0.37
[2]
  relative integration efficiency (log2): 2.86 ± 0.073

## ATTTAACTATAACG G46T
[1]
  relative integration efficiency (log2): -1.25 ± 0.4
[2]
  relative integration efficiency (log2): 1.87 ± 0.23

## ATTTAACTATAACG G46C
[1]
  relative integration efficiency (log2): -1.79 ± 0.26
[2]
  relative integration efficiency (log2): 1.05 ± 0.12

## ATTTAACTATAACG G46A
[1]
  relative integration efficiency (log2): -1.36 ± 0.26
[2]
  relative integration efficiency (log2): 2.007 ± 0.0045

## ATTTAACTATAACG A19C
[1]
  relative integration efficiency (log2): -1.84 ± 0.3
[2]
  relative integration efficiency (log2): 1.06 ± 0.42

## ATTTAACTATAACG A19G
[1]
  relative integration efficiency (log2): -0.904 ± 0.018
[2]
  relative integration efficiency (log2): 2.08 ± 0.037

## ATTTAACTATAACG A19T
[1]
  relative integration efficiency (log2): -1.53 ± 0.24
[2]
  relative integration efficiency (log2): 2.1 ± 0.09

## ATTTAACTATAACG
[1]
  relative integration efficiency (log2): -0.618 ± 0.17
[2]
  relative integration efficiency (log2): 2.52 ± 0.22

## ATTTAACTATAACG T25C
[1]
  relative integration efficiency (log2): -1.07 ± 0.25
[2]
  relative integration efficiency (log2): 2.2 ± 0.17

## ATTTAACTATAACG T25A
[1]
  relative integration efficiency (log2): -1.13 ± 0.11
[2]
  relative integration efficiency (log2): 2.26 ± 0.046

## ATTTAACTATAACG T25G
[1]
  relative integration efficiency (log2): -1.44 ± 0.3
[2]
  relative integration efficiency (log2): 1.851 ± 0.01

## ATTATTGATATTGC A62T
[1]
  relative integration efficiency (log2): -0.325 ± 0.075
[2]
  relative integration efficiency (log2): 1.957 ± 0.011

## ATTTAACTATAACG T6A
[1]
  relative integration efficiency (log2): -6.98 ± 0.9
[2]
  relative integration efficiency (log2): -4.12 ± 0.43

From the supplement of paper PMC10201428
